From a protein production outcome set (Wang et al. 2014)

Test: label from the status in PepcDB records

| Sequence | protein production |
| --- | --- |
| MAGAAHRLMEARMRRYDNKFARISDIDINQPESWRGRIFLTFDIDWAADFVLQDTIDLIEGAGVCATWFATHSTPLLENIRRNPLFELGVHPNFNPLLAGAHAEGVQEILDRTLELAPGCVSVRSHSLVQATSILNMFGERRLRYDCNILVPWDAGIVLQPWRHWTGDMVRVPYLWEDDVACLYDWEFDSTFDYWYQPDGINVLDFHPIHVYMNTESLRRYEDSREVHRNPVDLIRWRNTSAGSRTFLQSLLARNI | not failed |
| MAGAPGPLRLALLLLGMVGRAGPRPQGATVSLWETVQKWREYRRQCQRSLTEDPPPATDLFCNRTFDEYACWPDGEPGSFVNVSCPWYLPWASSVPQGHVYRFCTAEGLWLQKDNSSLPWRDLSECEESKRGERSSPEEQLLFLYIIYTVGYALSFSALVIASAILLGFRHLHCTRNYIHLNLFASFILRALSVFIKDAALKWMYSTAAQQHQWDGLLSYQDSLSCRLVFLLMQYCVAANYYWLLVEGVYLYTLLAFSVLSEQWIFRLYVSIGWGVPLLFVVPWGIVKYLYEDEGCWTRNSNMNYWLIIRLPILFAIGVNFLIFVRVICIVVSKLKANLMCKTDIKCRLAKSTLTLIPLLGTHEVIFAFVMDEHARGTLRFIKLFTELSFTSFQGLMVAILYCFVNNEVQLEFRKSWERWRLEHLHIQRDSSMKPLKCPTSSLSSGATAGSSMYTATCQASCS | failed |
| MAGAQPGVHALQLEPPTVVETLRRGSKFIKWDEETSSRNLVTLRVDPNGFFLYWTGPNMEVDTLDISSIRDTRTGRYARLPKDPKIREVLGFGGPDARLEEKLMTVVSGPDPVNTVFLNFMAVQDDTAKVWSEELFKLAMNILAQNASRNTFLRKAYTKLKLQVNQDGRIPVKNILKMFSADKKRVETALESCGLKFNRSESIRPDEFSLEIFERFLNKLCLRPDIDKILLEIGAKGKPYLTLEQLMDFINQKQRDPRLNEVLYPPLRPSQARLLIEKYEPNQQFLERDQMSMEGFSRYLGGEENGILPLEALDLSTDMTQPLSAYFINSSHNTYLTAGQLAGTSSVEMYRQALLWGCRCVELDVWKGRPPEEEPFITHGFTMTTEVPLRDVLEAIAETAFKTSPYPVILSFENHVDSAKQQAKMAEYCRSIFGDALLIEPLDKYPLAPGVPLPSPQDLMGRILVKNKKRHRPSAGGPDSAGRKRPL | failed |
| MAGASLFTLLDDIATLLDDVSILTKVAAKKTAGVLGDDLALNAQQVTGVTADRELPVVWAVAKGSLVNKVILVPAALAISALEAWLRGRGYNVPLVMPLMMIGGAYLCFEGVEKLAHKFLHSEEEDAQRHAERTRVLADEAVDVVALEKDKVKGAIRTDFILSAEIIVLSLGVVAGVSFGQQVAVLVAIALAMTIGVYGLVAGIVKLDDLGLYLSKKGAALAALGRGILVAAPWLMKFLSVAGTLAMFLVGGGILVHNIPTLHHLVVDLAKASGSLGWLVEALGNMLVGVVAGAVVLAAVTGFQKLRGNRPRTDSVQSLRRQAKSRTG | failed |
| MAGAYLHIPFCEHICYYCDFNKVFIEGQPVDDYVAMLLKEMRMVMAEHPEEKIQTVYVGGGTPSTLTPTQLATLCQGIHDILHFDQGEFTFEANPNDLLTTEKLQVLHDYGVNRLSIGVQSFNDDVLRRIGRIHRAKDVYTAIANARQVGFDNISIDLIFRLPDQSRDDFLTSLQKALALDLPHYSTYSLILERKTIFYNLMRQGKLRLPTQDVEADMYQDAIDLMEAHGRHQYEISNFAKDGYQCEHNLLYWRNDKYFGFGAGAFGYLGRDRYHNYGPIKQYLTPLHADHLPVLEHHLVPQSEQIEEEMFLGLRTMQGVSEARFYDRYHMTVDAIYGETVPELVSQGLVVRQDGYIRLTNKGKFLGNEVFQRFLIDEPLVLEHHHHHH | not failed |
| MAGCRTNAKGNAMPISIRIGNQDLTVDVSSLGAEMQALTSGDGRSWLWTGDAAFWTGRSPILFPIVGKAPDDKIAIDGTVYPMAQHGFARRSEFALAASTETMCRFELAASEATRAVYPFDFQLAVVHAVEGRALTVTAEVTNRDPKPMPFGLGFHSAFAWPLPGASGRDHIVTLDNKGEPALVRLEGGLINPAPLPSPFNAGRLVLDHSMFEQDAMIFPDGAGEGLAYGSEGGPAMRFHFKNLPNLALWTKPGAPFLCIEPWHGTAAEAGASSELSKRPSTTILAPGAVASFAFTVEIPQ | failed |
| MAGKRKSRRGFGRVRKLPSGRFQARYPGPDGVLRPADRTFATTTDADRWLMRKRIEIEEGCWLDPAEGQTTVRDWAARWLAAVSPQLKHKTQASYRSLINSLINPVLGDRELSSLRPITVTEWVGAMRTKGLSASRIRQAYRVLSQIMRSAVDNDMIPQTPCRGVRLPRMPQTEPHILTPLEASRIVKGATKPHDLLIALLAYAGLRVGEAFALRRVDVDVSGGFVLVDENLAEANGVLVFDTPKSHQKRLLRVGPSLAKRLGRHLETLPGGDDALLFTTPGGKPLRYNQWRKAYFDPAVSAAGLTDVTPHDLRASHGTWVADRYGVMTAAHRLGHSNASVTTRHYARPVAGRDDQVAEAADSWLSGSEDNDDGSAAVPA | failed |
| MAGLSTAELVDIALEMAEMRTLPADSAVYVESTDLKRVMMGIDIGPAELLLARQLGCDGVIAHHPAGGSATLNFPEVLTRHVELMVEHGVPATAARDAIQGLLTRSLLRAQSANHDHTPSVARLLEMPFLNIHLPLDEVGRRIMVKTIQEAVEPLGDEARVQDAIDALMTLPEFAGAATRIMVPVGAVDQPLGKIAVVHGAGTNGGYAVARAYFDHGVRTVLYIHIAPEEAERLRREGGGNLIVTGHIASDLVGINRYVQALEERGVEVVRMSGL | not failed |
| MAGNAPLQQVQKKWAECQYSTPDGDEKEQCFHRAIAKTSIYLDREPGNPELTVWLAINKASLAGAQGGFGALSLAKEAKSLLEGVIATSPQTLDGSAYTSLGSLYYKVPGWPIGFGDDDKAEEMLKKALEINPKGIDPNYFYGDFLAEEGRDKEAKVYLTRAMQASPRPDRPLADKGRKLEIEATLGRLKLEHHHHHH | not failed |
| MAGRRLIIGDVHGHYRSLYRLLELADPDTDDQVYCLGDLIDRGPDSAKVVALVRSQGYTSLMGNHEHLLSQVLAFPDLSELRLHWFQAGGQATLASFGSWEALEELRPWLQQLPLYLDLGEIWLVHAGVDPDLPLSRQDANEFCWIRDQFLARSQPFFANKTILVGHTITCTMAGIQPGYVAAGAGWLGLDTGVYHPRSGWLTALDWDNQRVFQVQAQSNETRVCDLAERLQTVLSNPAKGRRSLLRYPRDQVSPS | failed |
| MAGTTEITTKPERVVVLDTGELDSVLSLGITPVGMTTTKGANPVPSYLADKVKDVERVGTINELNIEAIAALKPDLIIGSQLRADKLYPQLSDIAPTVFSIRPGSPWKENFLLVGEALGMEKEAEEKLNEYADRVAELKNNVPQNTEVSLVRFMPNKLRLYGNKSLIGVVLADAGLARPEKQNVDDLAVEISPENIDQAAGSVIFYTSYGKPDATGETAVVEGPAWKNLEAVAAGKAHRVNDDVWFLGLGPTGAMEIVSDLHDYLLEHHHHHH | not failed |
| MAHATPPSALEQGGPIRVEHDRQRRQFSVRLNGCHDRAVLLYEYVGKRIVDLQHTEVPDAYRGRGIAKHLAKAALDFVVEEDLKAHLTCWYIQKYVKENPLPQYLERLQP | failed |
| MAHELSAGSVFAGYRIERMLGAGGMGTVYLARNPDLPRSEALKVLAAELSRDLDFRARFVREADVAAGLDHPNIVAVHQRGQFEGRLWIAMQFVDGGNAEDALRAATMTTARAVYVIGEVAKALDYAHQQGVIHRDIKPANFLLSRAAGGDERVLLSDFGIARALGDTGLTSTGSVLATLAYAAPEVLAGQGFDGRADLYSLGCALFRLLTGEAPFAAGAGAAVAVVAGHLHQPPPTVSDRVPGLSAAMDAVIATAMAKDPMRRFTSAGEFAHAAAAALYGGATDGWVPPSPAPHVISQGAVPGSPWWQHPVGSVTALATPPGHGWPPGLPPLPRRPRRYRRGVAAVAAVMVVAAAAVTAVTMTSHQPRTATPPSAAALSPTSSSTTPPQPPIVTRSRLPGLLPPLDDVKNFVGIQNLVAHEPMLQPQTPNGSINPAECWPAVGGGVPSAYDLGTVIGFYGLTIDEPPTGTAPNQVGQLIVAFRDAATAQRHLADLASIWRRCGGRTVTLFRSEWRRPVELSTSVPEVVDGITTMVLTAQGPVLRVREDHAIAAKNNVLVDVDIMTPDTSRGQQAVIGITNYILAKIPG | failed |
| MAHHHHHHMNPHPVEPRDQIAELLVESPLFSFNCAHFIAFKGFRETLHGHNYNVSLRLRGNIQGDGYVIDFSILKEKVRKVCKQLDHHFILPMYSDVLNIQEVNDNFKITCEDNSEYSFPKRDCVQIPIKHSSTEEIGLYILNQLIEEIDLPFLKTRSVNYMEVTVSESPSQKATVHRNI | not failed |
| MAHIEKVPQRPGFSWRYRRIDEVEKEYDLHFHDDVFELVIHRHFTGSLHIGHHELEVTHNQMLLIAPGVPHSIHSTLVESKCETHVIWFKREWIANLMFYCAELRKLDPLLKAANKGVVFSERTAQHVVDLLHELMTFPAMEQLSRFLHVLSLIAHDEGAKTLMTHSYLSMSEHELQERERVASVNAYLEQHFATKVTLADLANYLSLSESAVTRLFQKHFKEPFSQRLMKLRINHAADLLQSTSLPIGIVFERVGYRNQALFNRHFKTYKGLTPRDYRQHYQQRIQP | failed |
| MAHLVITIGCEYGAKGNQIGKKVAKDLGIKFYDRDTVDEIIKEVGIPKDIMEKVEEGITIAGKGAEGDVRGSFSKYADLTERAIHVQKTIIRKLSDRESCVIIGRSADYILKEHKPILRIFIYSPDEVRIENVMKSHNLSEDDAKLFITEKDKRYHKRHMALTGSNRGDRHNRDMLIDSSLLGVDGTAELIESLARKVVENESKTEAGGDK | not failed |
| MAHVRLFRHYIHLPFVILGLIDLIVMGLAFALAVFFRFFGELEFFLDNLVFVLPSITIFALFNLIVMIALGVHQSRVEEGMSGMMLRTIMAMILAIPLHGFAYFVADDWLWYLGSFGLLTSATVLGIFSLGIARVVFFAVVGKDRFKRRVLVLGAGRRAKQMFEDLTTPFNRKGFSLDGFVPMPDDTVEVDEQYLINLPTSLHDYVLRHPVREIVVAVDDRRRGLPMEDLLECKMEGVHIIDGANFYERESRKVALEMITRGWLVFSDGFTVSSVYGVGKRALDVLASGTLLLATFPIMILTAIAIKLEDGLKAPVIYSQERVGLNNQVFKVHKFRSMITDAEKNGAVWARKNDTRVTRVGEFIRKVRIDELPQIFNVLNGTMAFVGPRPERPVFVEQLSEKIPFYAERHRVKPGLTGWAQLCFAYADNEEDTREKLRYDLYYIKNQSLLLDLLIIIQTVEVVLFKKGSR | failed |
| MAIASSSPSSSSNVSVIPTGPQVFISFRGKELRKGFISFLVPALKKKNINVFIDEHEVRGKDLISLFRRIGESKIALVIFSEGYTESKWCLDELVQIKKCVDQKKIIAIPIFYKLDPAVVKGLKGKFGDKFRDLIERYHHEPERYQKWTEALTSVSRTFALCLPEHRLRFFNHKNCLFLVAQDTNDKSEKDFIRSIIKEVKKALSNISRERNGDREEIDDCFVVSERKLTTDMYDTPE | failed |
| MAIDTTSSAPVHEPQPPLDTRLSTRDKLVLFVLCAAQFMVALDFSVLNVALPVLGRDLGMSQSALQWAVTAFALPSGGFLLLFGRIGDLYGRRRLFLTGLALFGTASLLATFAWDPASFLAGRALQGLGAAAIVPTGMSLLTTTFPEGPARDRALGISGTLLSLGFTVGMVAGGVLTDAFGWRSTMGLLTLFALIVLPLAPGLLPESRTPDRPRLDIPGAVTVTGGLLSLIYALSTAAERGFGGTDVIATLVAGVLLLAAFVTVESHAEAPLVSLPMLRRRTVAWGNLGGLITFSMMSTVVFVLTLYLQETLGLSAFETGLVFGVQGVLSAVAGANASKVIGRLGARRTLVVSLAGQGAFVATLVALGDGGWSVWLATAAVSLASMCHLGAIISYGLTVTSGVPDDEQGLATGLVTSTQQVGITIGIPLLGVLATTSSDLLAGVHTVLALDAVIVLAAAVLIAVGLGRRPATAPGAASGAVEAEAVGSR | failed |
